Measured values from patent US20260242419A1, “A CYCLIC PEPTIDE FOR TRAPPING INTERLEUKIN-1 BETA” (Merck Sharp & Dohme LLC, priority 2023, published 2026).
Starred links: 1 amine or outer side, 2 acyl side, 3 side chain; linkers in the order of their positions; H or OH if unused. Non-standard residues stand in square brackets, D forms with d. Trp4Az = (2S)-2-amino-3-(1H-pyrrolo[3,2-b]pyridin-3-yl)propanoic acid, O=C([C@H](Cc1c[nH]c2cccnc12)N[*:1])[*:2]; Trp(4-Cl)(βS-Me) = C[C@@H](c1c[nH]c2cccc(Cl)c12)[C@H](N)C(=O)O; dPro(4R-(4-pyridylmethyl)) = O=C(O)[C@H]1C[C@@H](Cc2ccncc2)CN1; Ala(piperidin-4-yl) = O=C([C@H](CC1CCN([*:3])CC1)N[*:1])[*:2]; dPro(3S-(4-Br-benzyl)) = O=C(O)[C@@H]1NCC[C@@H]1Cc1ccc(Br)cc1; Trp(βS-Me,4-F) = C[C@@H](c1c[nH]c2cccc(F)c12)[C@H](N)C(=O)O; Bip(4'-COOH) = N[C@@H](Cc1ccc(-c2ccc(C(=O)O)cc2)cc1)C(=O)O; Ala(1-bicyclo(1.1.1)pentyl) = N[C@@H](CC12CC(C1)C2)C(=O)O; dPro(4R-Bzl(4-F)) = O=C(O)[C@H]1C[C@@H](Cc2ccc(F)cc2)CN1; 1Nal(3S-Me) = C[C@@H](c1cccc2ccccc12)[C@H](N)C(=O)O; Ala(morpholin-4-yl) = N[C@@H](CN1CCOCC1)C(=O)O; Ala(piperazin-1-yl) = N[C@@H](CN1CCNCC1)C(=O)O; Ala(pyrimidin-5-yl) = N[C@@H](Cc1cncnc1)C(=O)O; Phe(4-COOH) = N[C@@H](Cc1ccc(C(=O)O)cc1)C(=O)O; Pro(cis-4-F) = O=C(O)[C@@H]1C[C@H](F)CN1; Ala(4-THP) = N[C@@H](CC1CCOCC1)C(=O)O; cisHyp = O=C(O)[C@@H]1C[C@H](O)CN1; d(αMeD) = C[C@@](N)(CC(=O)O)C(=O)O; d(αMeK) = C[C@@](N)(CCCCN)C(=O)O; 4Pal = N[C@@H](Cc1ccncc1)C(=O)O; Cba = N[C@@H](CC1CCC1)C(=O)O; αMeK = C[C@](N)(CCCCN)C(=O)O; hSer = N[C@@H](CCO)C(=O)O; Orn = NCCC[C@H](N)C(=O)O; Dab = NCC[C@H](N)C(=O)O; Dap = NC[C@H](N)C(=O)O; Aib = CC(C)(N)C(=O)O

B1: SEQ ID NO: 147 (peptide)
peptide: cyclo([Bip(4'-COOH)][Ala(1-bicyclo(1.1.1)pentyl)][Phe(4-COOH)]G[Pro(cis-4-F)][Trp(βS-Me,4-F)][Aib][hSer]W[αMeK][Ala(pyrimidin-5-yl)]Q[Dab]G[dPro(4R-Bzl(4-F))])
modifications: ring closure inferred; not fully specified (bridges); printed as Bip4CO2H-AlaPent-Phe4COOH-G-Proc4F-SbMeW4F-Aib-hS-W-aMeK-PyrimAla-Q-Dab-G-dProc4Bn4F, cyclic (macrolactam)
B2: SEQ ID NO: 145 (peptide)
peptide: cyclo([Bip(4'-COOH)][Ala(1-bicyclo(1.1.1)pentyl)][Phe(4-COOH)]G[Pro(cis-4-F)][Trp(βS-Me,4-F)][Aib]SW[d(αMeK)][Ala(pyrimidin-5-yl)]Q[Dab]G[dPro(4R-Bzl(4-F))])
modifications: ring closure inferred; not fully specified (bridges); printed as Bip4CO2H-AlaPent-Phe4COOH-G-Proc4F-SbMeW4F-Aib-S-W-daMeK-PyrimAla-Q-Dab-G-dProc4Bn4F, cyclic (macrolactam)
B3: SEQ ID NO: 146 (peptide)
peptide: cyclo([Bip(4'-COOH)][Ala(1-bicyclo(1.1.1)pentyl)][Phe(4-COOH)]G[Pro(cis-4-F)][Trp(βS-Me,4-F)][Aib]SW[αMeK][Ala(4-THP)]Q[Dab]G[dPro(4R-Bzl(4-F))])
modifications: ring closure inferred; not fully specified (bridges); printed as Bip4CO2H-AlaPent-Phe4COOH-G-Proc4F-SbMeW4F-Aib-S-W-aMeK-AlaTHP4-Q-Dab-G-dProc4Bn4F, cyclic (macrolactam)
B4: SEQ ID NO: 149 (peptide)
peptide: cyclo([Bip(4'-COOH)][4Pal][Phe(4-COOH)]G[Pro(cis-4-F)][1Nal(3S-Me)][Aib]EW[Aib][Ala(pyrimidin-5-yl)]Q[Dab]G[dPro(4R-Bzl(4-F))])
modifications: ring closure inferred; not fully specified (bridges); printed as Bip4CO2H-4Pal-Phe4COOH-G-Proc4F-sbMe1Nal-Aib-E-W-Aib-PyrimAla-Q-Dab-G-dProc4Bn4F, cyclic (macrolactam)
B5: SEQ ID NO: 148 (peptide)
peptide: cyclo([Bip(4'-COOH)][4Pal][Phe(4-COOH)]G[Pro(cis-4-F)][Trp(4-Cl)(βS-Me)][Aib]EW[Aib][Ala(pyrimidin-5-yl)]Q[Dab]G[dPro(4R-Bzl(4-F))])
modifications: ring closure inferred; not fully specified (bridges); printed as Bip4CO2H-4Pal-Phe4COOH-G-Proc4F-sbMeW4Cl-Aib-E-W-Aib-PyrimAla-Q-Dab-G-dProc4Bn4F, cyclic (macrolactam)

Molecular target: Recombinant human IL-1β (BioLegend 579404) (human, UniProt P01584 117-269)
Test: cell-based or functional assay

Binder	MRC5 IC50 [nM]
cyclo([Bip(4'-COOH)][4Pal][Phe(4-COOH)]G[Pro(cis-4-F)][Trp(βS-Me,4-F)][Aib]EW[Aib][Ala(pyrimidin-5-yl)]Q[Orn]G[dPro(3S-(4-Br-benzyl))]) (ring closure inferred) [SEQ ID NO: 151]	0.022
B1	0.045
cyclo([Bip(4'-COOH)][Ala(1-bicyclo(1.1.1)pentyl)][Phe(4-COOH)]G[Pro(cis-4-F)][Trp(βS-Me,4-F)][Aib]SW[d(αMeD)][Ala(pyrimidin-5-yl)]Q[Dab]G[dPro(4R-(4-pyridylmethyl))]) (ring closure inferred) [SEQ ID NO: 155]	0.011
B2	0.041
cyclo([Bip(4'-COOH)][Ala(1-bicyclo(1.1.1)pentyl)][Phe(4-COOH)]G[cisHyp][Trp(βS-Me,4-F)][Aib]SW[d(αMeD)][Ala(pyrimidin-5-yl)]Q[Dab]G[dPro(4R-(4-pyridylmethyl))]) (ring closure inferred) [SEQ ID NO: 160]	0.023
cyclo([Bip(4'-COOH)][4Pal][Phe(4-COOH)]G[Pro(cis-4-F)][Trp(βS-Me,4-F)][Aib]SW[d(αMeD)][Ala(pyrimidin-5-yl)]QSG[dPro(4R-(4-pyridylmethyl))]) (ring closure inferred) [SEQ ID NO: 156]	0.015
cyclo([Bip(4'-COOH)][4Pal][Phe(4-COOH)]G[cisHyp][Trp(βS-Me,4-F)][Aib]SW[d(αMeD)][Ala(pyrimidin-5-yl)]QSG[dPro(4R-(4-pyridylmethyl))]) (ring closure inferred) [SEQ ID NO: 161]	0.019
cyclo([Bip(4'-COOH)][Cba][Phe(4-COOH)]G[cisHyp][Trp(βS-Me,4-F)][Aib]SW[d(αMeD)][Ala(pyrimidin-5-yl)]Q[Dab]G[dPro(4R-(4-pyridylmethyl))]) (ring closure inferred) [SEQ ID NO: 164]	0.039
cyclo([Bip(4'-COOH)][Ala(1-bicyclo(1.1.1)pentyl)][Phe(4-COOH)]G[cisHyp][Trp(βS-Me,4-F)][Aib]SW[d(αMeD)][Ala(pyrimidin-5-yl)]QSG[dPro(4R-(4-pyridylmethyl))]) (ring closure inferred) [SEQ ID NO: 157]	0.038
B3	0.034
cyclo([Bip(4'-COOH)][4Pal][Phe(4-COOH)]G[Pro(cis-4-F)][1Nal(3S-Me)][Aib]EW[Aib][Ala(pyrimidin-5-yl)]Q[Dab]G[dPro(3S-(4-Br-benzyl))]) (ring closure inferred) [SEQ ID NO: 153]	0.019
cyclo([Bip(4'-COOH)][Ala(1-bicyclo(1.1.1)pentyl)][Phe(4-COOH)]G[Pro(cis-4-F)][Trp(βS-Me,4-F)][Aib]EW[αMeK][Ala(piperidin-4-yl)]Q[Dab]G[dPro(4R-Bzl(4-F))]) (ring closure inferred) [SEQ ID NO: 166]	0.039
cyclo([Bip(4'-COOH)][Ala(1-bicyclo(1.1.1)pentyl)][Phe(4-COOH)]G[Pro(cis-4-F)][Trp(βS-Me,4-F)][Aib]SW[Aib][Ala(piperazin-1-yl)]Q[Dab]G[dPro(4R-Bzl(4-F))]) (ring closure inferred) [SEQ ID NO: 168]	0.018
cyclo([Bip(4'-COOH)][4Pal][Phe(4-COOH)]G[Pro(cis-4-F)][Trp(βS-Me,4-F)][Aib]EW[Aib][Ala(pyrimidin-5-yl)]Q[Dap]G[dPro(3S-(4-Br-benzyl))]) (ring closure inferred) [SEQ ID NO: 150]	0.019
cyclo([Bip(4'-COOH)][Ala(1-bicyclo(1.1.1)pentyl)][Phe(4-COOH)]G[Pro(cis-4-F)][Trp(βS-Me,4-F)][Aib]SW[Aib][Ala(morpholin-4-yl)]Q[Dab]G[dPro(4R-Bzl(4-F))]) (ring closure inferred) [SEQ ID NO: 167]	0.013
cyclo([Bip(4'-COOH)][4Pal][Phe(4-COOH)]G[cisHyp][Trp(βS-Me,4-F)][Aib]SW[d(αMeD)][Ala(pyrimidin-5-yl)]Q[Dab]G[dPro(4R-(4-pyridylmethyl))]) (ring closure inferred) [SEQ ID NO: 159]	0.013
cyclo([Bip(4'-COOH)][Ala(1-bicyclo(1.1.1)pentyl)][Phe(4-COOH)]G[Pro(cis-4-F)][Trp(βS-Me,4-F)][Aib]SW[d(αMeD)][Ala(pyrimidin-5-yl)]QSG[dPro(4R-(4-pyridylmethyl))]) (ring closure inferred) [SEQ ID NO: 158]	0.013
B4	0.024
cyclo([Bip(4'-COOH)][4Pal][Phe(4-COOH)]G[Pro(cis-4-F)][Trp(βS-Me,4-F)][Aib]EW[Aib][Ala(pyrimidin-5-yl)]QKG[dPro(3S-(4-Br-benzyl))]) (ring closure inferred) [SEQ ID NO: 152]	0.031
cyclo([Bip(4'-COOH)][Ala(1-bicyclo(1.1.1)pentyl)][Phe(4-COOH)]G[Pro(cis-4-F)][Trp(βS-Me,4-F)][Aib]SW[Aib][Ala(piperidin-4-yl)]Q[Dab]G[dPro(4R-Bzl(4-F))]) (ring closure inferred) [SEQ ID NO: 169]	0.019
cyclo([Bip(4'-COOH)][Ala(1-bicyclo(1.1.1)pentyl)][Phe(4-COOH)]G[Pro(cis-4-F)][Trp(βS-Me,4-F)][Aib]EW[αMeK][Ala(morpholin-4-yl)]Q[Dab]G[dPro(4R-Bzl(4-F))]) (ring closure inferred) [SEQ ID NO: 165]	0.022
cyclo([Bip(4'-COOH)][4Pal][Phe(4-COOH)]G[Pro(cis-4-F)][Trp(βS-Me,4-F)][Aib]S[Trp4Az][Aib][Ala(pyrimidin-5-yl)]Q[Dab]G[dPro(4R-(4-pyridylmethyl))]) (ring closure inferred) [SEQ ID NO: 162]	0.05
B5	0.032
cyclo([Bip(4'-COOH)][4Pal][Phe(4-COOH)]G[Pro(cis-4-F)][Trp(βS-Me,4-F)][Aib]SW[d(αMeD)][Ala(pyrimidin-5-yl)]Q[Dab]G[dPro(4R-(4-pyridylmethyl))]) (ring closure inferred) [SEQ ID NO: 154]	0.011
cyclo([Bip(4'-COOH)][Cba][Phe(4-COOH)]G[Pro(cis-4-F)][Trp(βS-Me,4-F)][Aib]SW[Aib][Ala(pyrimidin-5-yl)]Q[Dab]G[dPro(4R-(4-pyridylmethyl))]) (ring closure inferred) [SEQ ID NO: 163]	0.03
